Measurements reported in paper PMC7026663 (Nucleic Acids Research, 2019).

Legend:
H2A/H2B dimer = H2A/H2B dimer (UniProt P06897;P02281); experiment: ITC
H3/H4 tetramer = H3/H4 tetramer (UniProt P84233;P62799); experiment: ITC

B1: AtFKBP53 NTD (residues 1–112) (domain or fragment)
chain: MGFWGLEVKPGKPQAYNPKNEQGKIHVTQATLGTGLSKEKSVIQCSIGDKAPIALCSLLPNKIECCPLNLEFDDDDEPVEFTVTGDRSIHLSGFLEYYQDDEDDYEHDEDDS
- stoichiometry N (H2A/H2B dimer): 1
- stoichiometry N (H3/H4 tetramer): 1
